Earlier results on one substance are cited in paper PMC2883863.

The data set deals with Cys36 (UniProt position 73, FWTPWCPFCNA). Particulars: not stated (quoted literature value for Mtb DsbE).

By pKa is commonly meant the pH at which an ionisable group is half protonated. Regarding “Disulfide bond forming protein DsbE (Mtb DsbE, Rv2878c, MPT53) (Mycobacterium tuberculosis)”, the pKa is 5.35 ± 0.2.
